Data published in the DeepSol protein solubility set.

Assay: soluble on expression in E. coli; label from the status in PepcDB or PDB records

Question: With “MAREATIARTTNETSIQLSLSLDGEGKAELETGVPFLTHMLDLFAKHGQFDLYIEAKGDTHIDDHHTTEDIGICLGQAIKEALGDKKGIKRYGNAFVPMDDALAQVVIDLSNRPHFEFRGEFPATKVGAFDVELVHEFLWKLALEARMNLHVIVHYGRNTHHMIEAVFKALGRALDEATMIDPRVKGVPSTKGML” as the sequence, how does the “soluble on expression in E. coli” value read?
Answer: The value was “not soluble”.

Question: With “MAHHHHHHMGKPGKKAGKGLLAPTNPNRRTDPNKTSLRDQRTIKRLKMYKSKIKRDEKGNIIKGSVLKASDRIEQQMARIAPDRRWFGNTRTIGQEALQKFREEMGTKYKDPYSVIIKQSKLPLSLLEEPKNTDGSIRKEMEWDKTFGDKANRKRVRLNAVDMSTLATEANVKGDYYDCNKKEKDRDLMKGVHKDRDDKTRNGILMTKGQSNRIWCELYKVIDSSDVVLYVVDARDPMGTRSAFLEDFMRREKKYKHFVLVLNKCDLVPLWATARWLQILSKDYPTIAFHASVNHPFGKGNVISLLRQFARLHNVTHRGSKRTKTPISVGVIGYPNVGKSSLINTLRRKSVCKVAPIPGETKVWQYVALTRSIFLIDCPGVVYDRESNNDIQAVLKGVVRVERLGNADKTDVVDTVLKIVKQRDIVATYGVREWRDVVDFLEKLAKLRGKLVAGGEPDVEAAARMLLYDWQRGRLPWFNAPPFESNKHHRDAMEQPQEKHMKLIEHYSTFNVVDDTINRGDEKQDEGGDGDEETANNAADEDQLDSGSEAEKDEEAVKPLKPSKTDRLSATKADTQLATVATYMREQEEKQRKAQRQQKRKAARKGQEDVEAFSADADRESDDALWAQFLAAAKV” as the sequence, how does the “soluble on expression in E. coli” value read?
Answer: Its value is “soluble”.

Question: Which “soluble on expression in E. coli” value does the source give for “SLMQALARTGYAGPLSLEIFNDAFRAAPTEATAIDGLRSLIWIEELAEGAAWSEASPPAVGYDGVHFIEFTLDEESAAPLGEFFSALGFRHIGRHRSKNVELWHQGDIHLVLNFETDSFAHTFRLLHGTSVCAVGVRVNDLDSAVTRAAHYKAQWFRGPVGEGEMEIPALRGIEGSLVYLVDDAQAREMQWKTDFHLFEDGQDDDAGLINIDHISYVLPPTQLLSWLLFHRTVFGFDAGPEHEIADPHGMVVSQTVTSPDNSVRIPLTVSSARETLPGRFLSEHQGGVQQIAFASGDIFATIDAMLARGLPMLRIPANYYDDLAARFDLDDALLEAMRSRNILFDRNDDGDFFHAYTETFMGRFFFEVVERRGSYSQFGAVNAPIRLAAQAGQQREG” here?
Answer: The value was “soluble”.

Question: With “MILKKDDRMYTKKPTIPENVIERAYKGKCTKEDALLLLEGNPFELFELANDLRAIAAGDTVSYVVNRNIYITNKCVGNCGFCAYRTEKGYILSIEEILKKAGDARKAGAVEVCVQGGYTPEADMEFYLEVIESLKAEYPDLCLHALSPMEVNYAAETSGMSVEEALRRLKKSGLDSLTGTSAEILSDRVRKIICPSKISTQQWIDTVTAAHKAGISTNATIMYGHVETLKERLDHVFTIREIQKETGGFTELIPMSFLPYNNPVGEKMLASGKFSSTGLEDLQLIAISRVILHTYVKNIQATWVKLGKKLAQVALQCGANDLGGTLMEDQISTASGGSHGEYVSPAEFEWMIKGAGRVPVQR” as the sequence, how does the “soluble on expression in E. coli” value read?
Answer: The value was “not soluble”.

Question: Which “soluble on expression in E. coli” value does the source give for “MLRHHSCALLMLILVFVEVFATQSPTFDRQDRDYRPLQFGKRDGYRPLQFGKRDYRPLQFGKRSSGSSGPVVLEPIWEWQ” here?
Answer: The value was “soluble”.

Question: Which “soluble on expression in E. coli” value does the source give for “MTEEFNESMINDIKEGDKVTGEVQQVEDKQVVVHINGGKFNGIIPISQLSTHHIENPSEVVKVGDEVEAYVTKIEFDEENDTGAYILSKRQLETEKSYEYLQEKLDNDEVIEAEVTEVVKGGLVVDVGQRGFVPASLISTDFIEDFSVFDGQTIRIKVEELDPENNRVILSRKAVEQLENDAKKASILDSLNEGDVIDGKVARLTNFGAFINIGGVDGLVHVSELSHGTCSNTRRSCVSRLEHHHHHH” here?
Answer: The value was “soluble”.

Question: With “SKKVIGKKRAHAEDDELDPMDPSSYSDAPRGGWVVGLKGVQPRAADTTASGPLFQQRPYPSPGAVLRRNAEVASSQKKKPNSQFTEITKRGDGSDGLGDAD” as the sequence, how does the “soluble on expression in E. coli” value read?
Answer: The value was “soluble”.

Question: With “MKPVFLDFEQPIAELTNKIDELRFVQDESAVDISDEIHRLQKKSNDLTKSIFSKLTPAQISQVSRHPQRPYTLDYIEALFTDFEELHGDRHFADDYAIVGGLARFNGQSVMVVGHQKGRDTKEKIRRNFGMPRPEGYRKALRLMKTAEKFGLPVMTFIDTPGAYPGIGAEERGQSEAIGKNLYELTRLRVPVLCTVIGEGGSGGALAVALGDYVNMLQYSTYSVISPEGCASILWKTAEKAADAAQALGITADRLQKLDLVDTVIKEPLGGAHRDFGQTMKNVKAVLEKQLHEAQSIPLADLLSRRFDRIMAYGKFSEQ” as the sequence, how does the “soluble on expression in E. coli” value read?
Answer: Its value is “not soluble”.

Question: With “SILATPILIPENQRPPFPRSVGKVIRSEGTEGAKFRLSGKGVDQDPKGIFRINEISGDVSVTRPLDREAIANYQLEVEVTDLSGKIIDGPVRLDISVIDQNDNRPMFKEGPYVGHVMEGSPTGTTVMRMTAFDADDPSTDNALLRYNILKQTPTKPSPNMFYIDPEKGDIVTVVSPVLLDRETMETPKYELVIEAKDMGGHDVGLTGTATATILIDD” as the sequence, how does the “soluble on expression in E. coli” value read?
Answer: Its value is “soluble”.

Question: With “MEIARKVMEEFLEIWNEALAKRSLPGKFVNKDLNFGEFGLGDNYTPQHTAVRNYALVMAHMIATVQAVSG” as the sequence, how does the “soluble on expression in E. coli” value read?
Answer: The value was “not soluble”.

Question: For “INAVRAALLENAHFMEKFYLQNGRFKQTSTKWPSLPIKEAEGFCIRLNGIARGALDSKFMLKAVAIDKDKNPFIIKMNENLVTFICKKSASSCSDGLDYFKGNDKDCKLLK”, which “soluble on expression in E. coli” value is on record?
Answer: The value was “not soluble”.

Question: With “MSKMKRRTNKPRATESANSSTKSSVLDEPTLVERKQQKKQILKFVQRTLEKMPQGLRAEFVGMRRFNDFEKMKAFKEAQEAGKNRYKDVGCLDNNRVKLEGPWPHEYIHANYVATPTNPKRFICTQAPLEKTCADFWYMCYQDKVEYIFMLCNLLEKGARKCFEYFPSKKGDVMDFEEGGQKISVKCESSVTYSFRSDAKANVTATEIVIEGPGEKTRKTTHYHWNDWPDRGVPAADMAVLELLENARPSKGPIVVHCSAGIGRTGSVVMLEYIMDQLLAGQIIDDGEKILVKIREQRNNSIQTDAQYLFVHQVILNYFRKKKLMEETGVQEAYDAFLEQYKKVVV” as the sequence, how does the “soluble on expression in E. coli” value read?
Answer: The value was “soluble”.

Question: With “MGSDKIHHHHHHMTALRQDIDPNGLLEYSVVYTDRALNHMSKAFQEVMNDLLSNLKTVYNAEAAVIIPGSGTYGMEAVARQLTIDEDCLIIRNGWFSYRWTQILEKGKFAKSSTVLTAERTEDTEAPKPFAPVDIETAVAKIKEDKSAIVYAPHVETSSGIILSEEYIKALSEAVHSVGGLLVIDCIASGCVWLDMKELGIDVLISAPQKGWSSTPCAGLVMLSAAAIKKVESTESNCFSLDLKQWLTIMRAYENGGHAYHATMPTDSLRQFRDAILEAKEIGFDILRDAQWELGNRVRKVLTDKGIESVAAEGFEAPGVVVSYTERDDMHKGSAFAEAGLQIAAGVPLKVGEPDNFKTFRLGLFGLDKLTDIDGTVERFEKALDEVLAK” as the sequence, how does the “soluble on expression in E. coli” value read?
Answer: The value was “not soluble”.

Question: Which “soluble on expression in E. coli” value does the source give for “MSYSPPQPPQRQYSSTLNVDCVDGVYRSQQQVSPLTKQVNHLAYEIPKNKYANNPWNYAPEFLKVFGDLRVHIGGKAVFDCVLLGSPRPRVCWLFNEDKLRFSDVIIEDTADVCRLTIPYVQMHHFGTFTVLCENEVGRATAQAELLPLYE” here?
Answer: Its value is “not soluble”.

Question: Which “soluble on expression in E. coli” value does the source give for “MITTPNISLTPTVAPPVDFPIIGNCDFQAQLWHLMSLHLQMQKSSAASTSSSSSSSTSSENLKKSPSSVQNTSVFSIDNILNSQKVPKLELENDEDVSSSPSPTCSTTGYTLDSLQNLDRRSLNKKGPSSHNRCVCDKCGKSYATTSNLSRHKQTHRALDSPHAKQCPHCDRVYVSMPALSMHILTHNASHECNVCGKRFSRLWLLQGHLRSHTGLRPFSCAHCGKSFADRSNLRAHMLTHTGDKRFECDKCGRRFALRAYLNRHLETCK” here?
Answer: Its value is “not soluble”.

Question: With “MVDKLKQQNCTISTCESLTAGLMAATIANLPGSSQVLRGGLITYATDSKVSVAGVPGATVEEHGPVSWQCAEAMAIGAKRQFQSQWAVSLTGVAGPATQCGQPVGTVWIGVALPNGTVKSKLVADILCGPGQVVAGDRQTIRLAAVRAAAMWITDLLGLEYTNEN” as the sequence, how does the “soluble on expression in E. coli” value read?
Answer: The value was “not soluble”.

Question: For “MEVKIFNTQDVQDFLRVASGLEQEGGNPRVKQIIHRVLSDLYKAIEDLNITSDEYWAGVAYLNQLGANQEAGLLSPGLGFDHYLDMRMDAEDAALGIENATPRTIEGPLYVAGAPESVGYARMDDGSDPNGHTLILHGTIFDADGKPLPNAKVEIWHANTKGFYSHFDPTGEQQAFNMRRSIITDENGQYRVRTILPAGYGCPPEGPTQQLLNQLGRHGNRPAHIHYFVSADGHRKLTTQINVAGDPYTYDDFAYATREGLVVDAVEHTDPEAIKANDVEGPFAEMVFDLKLTRLVDGVDNQVVDRPRLAV”, which “soluble on expression in E. coli” value is on record?
Answer: The value was “soluble”.

Question: Which “soluble on expression in E. coli” value does the source give for “MGHHHHHHSHLRYMKESQVLLTLTNPVENLTHVTLFECEEGDPDDINSTAKVVVPPKELVLAGKDAAAEYDELAEPQDFQDDPDIIAFRKANKVGIFIKVTPQREEGEVTVCFKMKHDFKNLAAPIRPIEESDQGTEVIWLTQHVELSLGPLLP” here?
Answer: The value was “soluble”.

Question: With “MKREEIADLMAFVVVAEERSFTRAAARLSMVQSALSQIVRRIEERLGLRLLTRTTRSVVPTEAGEHLLSVLGPILHDIDSALTSLSDLQNRPSGTIRITTVEHAAKTILLPAMRTFLKSHPEIDIQLTIDYGLTDVVSERFDAGVLRCTGNSGYYHLFFF” as the sequence, how does the “soluble on expression in E. coli” value read?
Answer: Its value is “not soluble”.

Question: For “MGSDKIHHHHHHMSSPLLTMRGIRKSYAGVHALVDGNLDLERGQIHALCGGNGAGKSTILGILMGFTRPDCGEIRIEGKPVSFANPTQALQAGIAIVQQELSGVPHLTVAENIYLGAEPRRRGFVDFPQLNRQAEELLASLGFDIDPRVPLASLSIASQQLIEIAKALSRRDADILIFDEPTSAIGEKDTLRLFEVLRDLAAAGKGIIYVTHRLAEVFTIADSYTVFKDGARIETGRVADITREKLIESMIGGAIEGEYVKENVPSDRPLLDVRGLSRAPWFDRVSFTLHAGEILGIYGLVGSGRSQLLDTIYGLYPADAGTVWVEGREIRPGRVRAALGAGISYVTEDRKHSGLVLCASVGDNLSLSQLPHIQRFGFIRTALERAGIDDSIAKMRIKTPGPEQIVRNLSGGNQQKVVFGRCTSIGPKVLLLDEPTRGVDVGAKKEIYRFVSDFTKAGGAVLMVSSELDEITGMSDRIIVIKKGAHVAEFPREETTQKALMMAAV”, which “soluble on expression in E. coli” value is on record?
Answer: The value was “not soluble”.

Question: With “HATMEPLNCFVDLQSDSCLIRTGSQFQTGDRNAAARVAGLKPEQVTLETTFLGGGFGRRACPASDFVIEAVQVAKTVGKPVMVIRTREDDMRAG” as the sequence, how does the “soluble on expression in E. coli” value read?
Answer: The value was “not soluble”.

Question: Which “soluble on expression in E. coli” value does the source give for “MVEMDGRKFLKLLKEEVHKAVVGKDDVIELLAIALLAEGHVMIEGVPGVAKTTIAKSFAQVLGLKFSRIQLTPDLLPADILGTVYYDQSDGLWKIKKGPIFANVVLADEINRAQPKTQSALLEAMQERQVTIEGRTFPLEKPFMVIATKNPIEFEGVYNLPEAQVDRFMLNIKIGYPTREEEVEMLRKKDRGELGEVGRIFSREQIVRMINEVKRVKTSEEVLHYLYEIVNETRKDERLIVGASPRASEHLLYASKAKAFLEGRDYVIPDDVKFLAVPVLAHRLLIKAEHEIEGIKGEDIVREILERVEVPI” here?
Answer: The value was “soluble”.

Question: For “MEAGLDQSEIDERCECLKEVATSPAGRVLATDKQLDNLEQFISLVPGYIEKVRSHRVAVKAEEKRKAEEKRRQEEKEEEARKAREKQIEEERKAKEEQRANEERAKEERDRRALEVIVPPRQNSANSNINASVAFITNRLEMGSFSENNETVDRTIDTTATTVLSASSNAAQVDFVSFIKNSGEYLMVRKKKFPVDELVNNEKLGYPLGVTYDEKSKYWIICDRNLNKVLLMNVAESDVRVFEGPHLRNPTAVAVFEKGKSVVILCAPGNNQHVIYIYDFVDEIMHQFASHSDPLYNMKSQLRGLAISLGGNVLSLECSHAAAPKRLRIFKRDVGGKGFDIMGAKTPSFIASHNSKVAISDLGNNTVLIGNLIDTDWNKMSFSVLRIIETTQDLTLDQLANNNGFKFVSGMQFDTYGHLLIGDAKGHTIKLYDTDYKFLHRISSDFPLPYMSSFHISSSGEGIILDVHAQQKLHWVKMESIENITPWKAPPYQPKQSRENYQNRRF”, which “soluble on expression in E. coli” value is on record?
Answer: The value was “not soluble”.
